From patent CN111471109A (SHENZHEN INST OF ADV TECH CAS, dated 2020) come the findings set out here.

This assay addresses T1, FGFR4蛋白 (成纤维细胞生长因子受体4, recombinant protein antigen bought from 义翘神州 / Sino Biological) (human, UniProt P22455 22-369, limits assumed).
T1 construct: In the Western blot the protein was boiled and denatured; also called FGFR4蛋白抗原; fibroblast growth factor receptor 4
T1 sequence (looked up): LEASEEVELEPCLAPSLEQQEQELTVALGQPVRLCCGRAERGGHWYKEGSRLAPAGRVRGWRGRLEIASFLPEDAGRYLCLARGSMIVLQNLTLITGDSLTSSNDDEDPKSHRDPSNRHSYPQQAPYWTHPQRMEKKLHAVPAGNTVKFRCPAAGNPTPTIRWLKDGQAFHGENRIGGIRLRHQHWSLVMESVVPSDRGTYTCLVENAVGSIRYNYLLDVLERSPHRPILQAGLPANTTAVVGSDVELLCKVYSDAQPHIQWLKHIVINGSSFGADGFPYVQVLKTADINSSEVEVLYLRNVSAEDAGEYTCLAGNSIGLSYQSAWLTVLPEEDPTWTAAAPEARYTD
Briefly: BLI (OCTET K2), FGFR4 protein 10 μg/ml loaded on AHC (Anti-hIgG Fc Capture) sensors, 6G12F5 in solution at 8.84-566.7 nM.

B1: 6G12F5抗体 (抗FGFR4的单克隆抗体6G12F5) (antibody, V domains shown)
VH: EVMLVESGGGLVKPGGSLKLSCAVSGFTFRNYAMSWVRQSPEKRLEWVAEISNGGRYIYYPDTVTGRFTISRDNAKNTLYLEMSSLRSEDTAMYYCVRGGEKTSGYVWFAYWGEGTLVTVG
VL: DIQMTQTPASLSASVEETVTITCRASENIYSYLAWYQQKQGRSPQLLLYNAKTLAEGVPSRFSGSGSGTQFSLKINSLQPEDFGIYYCQHFSGTPYTFGEGTKLEIT
notes: Mouse hybridoma monoclonal antibody (BALB/c), purified from ascites on Protein G and detected with anti-mouse IgG; also called FGFR4单克隆抗体; FGFR4抗体
Regarding B1, the Kd is below 1 pM.
